According to the nanobody polyreactivity screen of Harvey et al. (2022):

Test: yeast display, Sf9 membrane polyspecificity reagent, FACS + sequencing; frameworks hold sequencing errors
How it was run: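 A nanobody's polyreactivity label depends on the gate it was sorted from. Yeast display cells were stained with 10% biotinylated, detergent-solubilized Sf9 membrane reagent for 1 hour at 4 °C, enriched on streptavidin microbeads and sorted by FACS. The low and high (top ~1%) gates were set on anti-HA fluorescence for expression and streptavidin fluorescence for reagent binding.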

Sequence	polyreactivity (PSR sort gate)
QVQLVESGGGLVQAGGSLRLSCADSGSIFYPYAKGLYRQDPGKERELVATITSSGSSTYYADSVKGRFTISRDNAKNTVYLQMNSLKPEDTAVYYCAAYRVILYYLYDYWGQGTQVTLSS	low polyreactivity
QVQLVESGGGLVQAGGSLRLSCADSGSISRNAMGWYRQAPGKERELVAGISQSGGRTYYADSVKGRFTISRDNAKKTVYLQMNSLKPEDSAVYYCNADPRRGPGSVSSVRNNYWGQGTQVTVSS	high polyreactivity
QVQLVESGGGLVQAGGSLRLSCADSGSTFDSYAMGWSRQAPGKEMDMVAGITWGGGSTYYADSVKGRLTISRDNAKNTVYLQLNSLKPEDTAVYDCAAEEVYYWYTYYYWGEGTQVTVSS	high polyreactivity
QVQLVESGGGLVQAGGSLRLSCADSGSTFDSYDMGWYRQAPGKERELVAGISYSSDRTYYADSVKGRFTISRDNAKNTVYLQMNSLKPEDTAVYYCAKDHTGTVQYPLDYWGQGTQVTVSS	low polyreactivity
QVQLVESGGGLVQAGGSLRLSCADSGSTFHPYAMGWYRKAPGKERELVAAISWTGGRTYYADSVKGRFTISRDNSKNTVYLQMNSLKPEDTAVYYCAARTYGKVGYWGQGTQVTVSS	high polyreactivity
QVQLVESGGGLVQAGGSLRLSCADSGSTFRANAMGWYRQAPGKERELVAAISQSGGITYYADSVKGRFTISRDNAKNSVYLQMNSLKPEDTAVYYCAAEYWFYYVDSFYYWGQGTQVTVSS	high polyreactivity
QVQLVESGGGLVQAGGSLRLSCADSGSTFVSYAMGWYRQAPGKERELVAVAISWSGGNTYYADSVKGRFTISRDNAKNTVYLQMNSLKPEDTAVYYCAAYGTTGVYRGPGYDYWGQGTQVTVSS	low polyreactivity
QVQLVESGGGLVQAGGSLRLSCADSGSTFYGNVMGWYRQAPGKERELVAAITRGGTTNYADSVKGRFTISRDNAKNTVYLQMNSLKPEDTAVYYCAKASYWVQASNDYWGQGTQVTVSS	low polyreactivity
QVQLVESGGGLVQAGGSLRLSCADSGSTFYTNAMGWYRQAPGKERELVAAINRSGGRTYYADSVKGRFTISRDNAKNTVYLQMNSLKPEDPAVYYCAARYPVRFSTDTARDYYWGQGTQVTVSS	low polyreactivity
QVQLVESGGGLVQAGGSLRLSCADSGTIFALYAMGWYRQAPGKEREFVAAIRRGTSTKYADSVKGRFTISRDNAKNTVYLQMNSLKPEDTAVYYCNARYYYSSSISRWYDYWGQGTQVTVSS	high polyreactivity
QVQLVESGGGLVQAGGSLRLSCADSGYIYPYYAMRWYRQAPGKERELVATITSRGGSTYYADSVKRRFTISRDIAKNTVYLQMNSLKPEDTAVYYCAIEYRYYRRRYDYCGQGTQVTVSS	high polyreactivity
QVQLVESGGGLVQAGGSLRLSCADTGRTFSRNSMGWYIQAPGKERELVATITRGTITNYADSVKGRFTISRDNAMNTVYLQINSRKPEDTAVYYCNARTLFFPARNRCELSDYWGQGTQVTVSS	low polyreactivity
QVQLVESGGGLVQAGGSLRLSCADYGFIMLYYALVCYRQAPGKERELVAAISWTGGRTYYADSVKGRFTISRDNAKNTVYLQMNSLKPEDTAVYFCNTVKLFGRKYGYWGQGTQVTVSS	low polyreactivity
QVQLVESGGGLVQAGGSLRLSCAGSGFTFIRYAMGWYRQAPGKERELVATITRRTGSTYYADSVKGRFTISRDNAKNTVYLQMYSLKPEDTAVYDCAGELYPSWSHTVFHGYNYWGQGTQVTVSS	high polyreactivity
QVQLVESGGGLVQAGGSLRLSCAGSGIIFSRYAMGWYRQAPGKERELVAAISSSGGTTYYADSVKGRFTISRDNAKNTVYLQMNSQKPEDTAVYYCYAPAFYKYKSFYAHSGYDYWGQGTQVTVSS	high polyreactivity
QVQLVESGGGLVQAGGSLRLSCAGSGRIFARNAMGWYRQAPGKARELVAGITWSGSSTYYADSVKGRFTISRDNAKNTVYLQMNRLKPEDTAVYYCAVDYYVGSLRIHHDYWGQGTQVTVSS	low polyreactivity

Sequence	polyreactivity (PSR sort gate)
QVQLVESGGGLVQAGGSLRLSCAGSGRIFLDKAMGWYRQAPGKERELVAAINGSGGSTYYADSVKGRFTISRDNAKNTVYLQMNSLKPKIPRSITATKRYIQSLWGFDYWGQGTQVTVSS	low polyreactivity
QVQLVESGGGLVQAGGSLRLSCAGSGRTFSTYAMGSDRQAPGKERELVAAITRRGGSTYYADSVKGRFTISRDNAKNTVYLQMNSLKPEDTAVYYCARENPGDSYYDYWGQGTQVTVSS	low polyreactivity
QVQLVESGGGLVQAGGSLRLSCAGSGSIFGLYAMGWYRQEPGKERELVAAINQSGGSTSYADSVKGRFTISRDNAKNTVYFQMNSLKPEDTAVYYCNRVRLNTEGFDYWGQGTQVTVSS	low polyreactivity
QVQLVESGGGLVQAGGSLRLSCAPSGFIFGLYVMGWYRQAPGKERELVAAITTSVGSTYYADSVKGRFTISRDNAKNTVYLQMNSLKPEDTAVYYCAKTSGTIDYDYWGQGTQVTVSS	low polyreactivity
QVQLVESGGGLVQAGGSLRLSCAPSGFIFTPYTMGGYRQAPGKERELVAAITDGSSTYYADSVKGRFTISRDNAKNTVYVQMNSLKPEDTAVYYCNADGKPPYISWLYDYWGQGTQVTVST	low polyreactivity
QVQLVESGGGLVQAGGSLRLSCAPSGFIFVKYVMGWYRQAPGKERELVATITGSTGGTYYADSVKGRFTISRDNAKNTVYLQMNSLKPEDTAVYYCNKDYYYNPGNVASGYDYWGQGTQVTVSS	low polyreactivity
QVQLVESGGGLVQAGGSLRLSCAPSGFIFYANDMGWYRQAPGKERELVARITNSGGSTYYADSVKGRFTISRDNAKNTVYLQMNSLKPEDTAVYYCAAWRRFNYSRRYYYWGQGTQVTLSS	high polyreactivity
QVQLVESGGGLVQAGGSLRLSCAPSGFTFSPYTMGWYRQAPGKETELVATIRYDGTSTYYADSVKGRFTISRDNAKNTVYLQMNSLKPEDTAVYYCNADGSAQDIAELDYWGQGTQVTVSS	low polyreactivity
QVQLVESGGGLVQAGGSLRLSCAPSGFTFYTYAMGWYRQAPGKERELVAVISRSGGRTNYADSVKGRFTISRDNAKNTVYLQMNSLKPEDTAVYYCNRYDRQRSWSVGYDYWGQGTQVTVSS	high polyreactivity
QVQLVESGGGLVQAGGSLRLSCAPSGGTIAPYAMGWYRQASGKESELDATISNSGTSTNYADSVKGRFTISRDNAKNTVYLQMNSLKPEDTAVYYCAKRYHQYRWRGWLWGFDYWGQGTQVTVLS	high polyreactivity
QVQLVESGGGLVQAGGSLRLSCAPSGIIFPTYAMGWYRQAPGKERELVAAIRWNGGSTYYADSVKGRFTISRDNAKNTVFLQMTILKPEDTAVYYCAAGYRGSYKYYYWGQGTQVTVSS	high polyreactivity
QVQLVESGGGLVQAGGSLRLSCAPSGIILYRYAMGWYRQAPGKERELVAAITYSGGSTYYADSVKGRFTISRDNAKNSVYLQMNSLNPEDTAVYYCAAESRAGRYYVSKPSNYWGQGTQVTVSS	high polyreactivity
QVQLVESGGGLVQAGGSLRLSCAPSGIIYRYYGMVWYRQAPGKERELVAVITNSDGSTYYADSVKGRFTISRDNAKNTVYLQQYSLKPEDTAVYYCAARGITSRQRYYWGQGTQVTVSS	low polyreactivity
QVQLVESGGGLVQAGGSLRLSCAPSGITFLANTMGGYRQAPGKERELVATITSSGGSTYYADSVKGRFTISRDNAKNTVYLQMNSLKPEDTAGYYCADSDLRYRGNYVYLPSEYWGQGSQVTVSS	low polyreactivity
QVQLVESGGGLVQAGGSLRLSCAPSGITFRHYALGGYRQAPGKERELVAAITSRGGSTYYADSVKGRFTISRDNAKNTVYLQMNSLKPEDTAVYYCNKRLYYQRWPAAAREYWGQGTQVTVSS	high polyreactivity
